Tests used:
[1] = molecular target: GpYLPQTV (IL-6R/gp130-derived pTyr peptide); experiment: SPR (SensiQ), His-tagged protein immobilised on HisCap chip, pTyr peptide as analyte
[2] = molecular target: 5-carboxyfluorescein-GpYLPQTV-NH2; experiment: Fluorescence polarization saturation curve; 10 nM 5-carboxyfluorescein-GpYLPQTV-NH2 probe with increasing purified His-Stat3
[3] = molecular target: PEpYINQS (pY1068 peptide of EGFR); experiment: SPR (SensiQ), His-tagged protein immobilised on HisCap chip, pTyr peptide as analyte
[4] = molecular target: PVpYHNQP (pY1086 peptide of EGFR); experiment: as above
[5] = molecular target: GpYVKPQ (pTyr peptide of Stat5); experiment: as above
[6] = molecular target: PpYLKTK (Stat3-derived pTyr705 peptide); experiment: as above
[7] = molecular target: GpYIKTE (Stat1 pY701 peptide); experiment: as above
[8] = molecular target: GpYVKPQ (pTyr peptide of Stat5); experiment: SPR (SensiQ); His-tagged Stat3 SH2 domain immobilised on a HisCap sensor chip, GpYVKPQ passed over as analyte; sensorgram shown at 100 µM

Kd [1] [µM]	EC50 (read off the curve) [2] [µM]	Kd [3] [µM]	Kd [4] [µM]	Kd [5] [µM]	Kd [6] [µM]	Kd [7] [µM]	Kd [8] [µM]	Substance
0.02	0.1							His-tagged Stat3 (full-length Stat3)
0.03		0.4	2.6	5200	1.6	6.6	5140	His-tagged Stat3 SH2 domain

From US20130177979A1, “METHODS AND COMPOSITIONS FOR CELL PERMEABLE STAT3 INHIBITOR” (University of Central Florida Research Foundation, Inc., priority 2010, published 2013)
